Among the data in patent publication US8497083B2, “Fructosyl amino acid oxidase” (priority 2009, dated 2013) are Vmax and Km values, retold here.

Where a chain is given by its changes, count along the chain named. In names and notes the source's numbering stands.

For data set [1], the target named is T1, fructosyl amino acid oxidase from Phaeosphaeria nodorum (PnFPOX, SEQ ID NO: 1) variant N56A (Parastagonospora nodorum, UniProt Q0UIL6, N56A). The data set can be described thus: Dehydrogenase activity kinetics (mPMS/DCIP), PnFPOX N56A mutant. It is filed as biochemical. Particulars: purified enzyme, 25° C., pH 7.0. The text has this:
(§1) As used herein, “dehydrogenase activity” is an enzymatic activity (Vmax) of the fructosyl amino acid oxidase to catalyze oxidation of fructosyl amino acid to generate 2-keto-D-glucose and the corresponding amino acid while utilizing an electron mediator other than oxygen as an electron acceptor. The dehydrogenase activity may be assayed by measuring the amount of electrons transferred to the mediator using, for example, one of mPMS/DCIP (1-methoxy-5-methylphenazinium methylsulfate/2,6-dichloroindophenol), cPES (trifluoro-acetate-1-(3-carboxy-propoxy)-5-ethyl-phenanzinium, NA BM31—1144 (N,N-bis-(hydroxyethyl)-3-methoxynitrosoaniline hydrochloride, NA BM31—1008 (N,N-bis-hydroxyethyl-4-nitrosoaniline) and N—N-4-dimethyl-nitrosoaniline.
(§2) As used herein in the context of the relative or quantitative activity, the dehydrogenase activity is specifically defined to be the mole amount of the substrate (fructosyl amino acid) oxidized per unit time measured by the amount of electrons transferred to the mediator at 25° C. in 10 mM PPB (pH 7.0), 0.6 mM DCIP, and 6 mM methoxy PMS (mPMS).
(§3) Escherichia coli BL21 (DE3) cells harboring expression vectors of N1-1 FAOD (SEQ ID NO: 2) mutants were grown in 150 ml of LB medium containing 50 μg/ml kanamycin at 37° C. After reaching an A660 value of 0.6, 0.3 mM IPTG was added and incubated at 25° C. for an additional 5 hours. The cells were collected by centrifugation and washed twice with 0.85% NaCl.aq. Then, the cells were resuspended in 10 mM Potassium Phosphate Buffer (PPB) pH 7.0 and lysed by ultrasonic homogenizer. The lysate was centrifuged at 10,000×g, 4° C. for 10 min, and the supernatant was centrifuged at 50,000 rpm, 4° C. for 60 min, then the supernatant was dialyzed against 10 mM PPB (pH 7.0). The oxidase activity was assayed at 25° C. in 10 mM PPB, pH 7.0, 1.5 mM TODB, 2 U/ml horseradish peroxidase (POD), and 1.5 mM 4-aminoantipyrine (4AA) in the presence of substrates (0.2, 0.5, 0.75, 1, 2, 5 mM f-^αVal […]). The formation of quinoneimine dye was measured spectrophotometrically at 546 nm. The dehydrogenase activity was assayed at 25° C. in 10 mM PPB (pH 7.0), 0.6 mM DCIP, and 6 mM methoxy PMS (mPMS) in the presence of substrates (0.2, 0.5, 1, 2, 5 mM f-^αVal or 5 mM f-^αVal-His).
(§4) Mutations were introduced using site-directed mutagenesis as in Example 1, and BL21 (DE3) cells were transformed with an expression vector containing wild-type or mutant PnFPOX (SEQ ID NO: 1). The cultured cells were resuspended in 10 mM PPB, pH 7.0, and lysed by sonication. The lysate was centrifuged at 10,000 g at 4° C. for 20 min, and the supernatant was centrifuged at 50,000 rpm at 4° C. for 60 min. The oxidase and dehydrogenase activities were measured as in Example 1. […]

Data set [2] deals with T1, fructosyl amino acid oxidase from Phaeosphaeria nodorum (PnFPOX, SEQ ID NO: 1) variant N56A. The data set can be described thus: Oxidase activity kinetics (4AA/TODB/POD), PnFPOX N56A mutant. Particulars: purified enzyme, 25° C., pH 7.0. Type of data set: biochemical.
Excerpt: (§5) As used herein “oxidase activity” is an enzymatic activity (Vmax) of the fructosyl amino acid oxidase to catalyze oxidation of fructosyl amino acid to generate 2-keto-D-glucose and the corresponding amino acid while utilizing oxygen as an electron acceptor. The oxidase activity may be assayed by measuring the amount of generated H2O2 by any methods known in the art, including by way of non-limiting example, reagents for H2O2 detection such as […] (4-aminoantipyrine/N,N-Bis(4-sulfobutyl)-3-methylaniline disodium salt/horseradish peroxidase) or by Pt electrode. As used herein in the context of the relative or quantitative activity, the oxidase activity is specifically defined to be the mole amount of the substrate (fructosyl amino acid) oxidized per unit time measured by the amount of generated H2O2 at 25° C. in 10 mM PPB, pH 7.0, 1.5 mM TODB, 2 U/ml horseradish peroxidase (POD), and 1.5 mM 4-aminoantipyrine (4AA). The formation of quinoneimine dye may be measured spectrophotometrically at 546 nm.
as §3
(§6) Mutations were introduced using site-directed mutagenesis as in Example 1, and BL21 (DE3) cells were transformed with an expression vector containing wild-type or mutant PnFPOX (SEQ ID NO: 1). The cultured cells were resuspended in 10 mM PPB, pH 7.0, and lysed by sonication. The lysate was centrifuged at 10,000 g at 4° C. for 20 min, and the supernatant was centrifuged at 50,000 rpm at 4° C. for 60 min. The oxidase and dehydrogenase activities were measured as in Example 1.
(§7) BL21 (DE3) transformed with pEPN (pET28a-PnFPOX)-N56A was grown aerobically at 37° C. in LB medium (2 l) containing 50 μg kanamycin ml^−1. […]

In data set [3] the test system is CC(C)[C@H](NCC1(O)OC[C@@H](O)[C@@H](O)[C@@H]1O)C(=O)N[C@@H](Cc1c[nH]cn1)C(=O)O. The data set can be described thus: Dehydrogenase activity kinetics (mPMS/DCIP), PnFPOX N56A mutant. Type of data set: biochemical, Phaeosphaeria nodorum. Particulars: other: purified enzyme, 25° C., pH 7.0.
Excerpt: as §1, §2, §3, §4

The subject of data set [4] is CC(C)[C@H](NCC1(O)OC[C@@H](O)[C@@H](O)[C@@H]1O)C(=O)O. The description is as above. Type of data set: biochemical, Phaeosphaeria nodorum. Particulars: other: purified enzyme, 25° C., pH 7.0.
Excerpt: as §1, §2, §3, §4

The subject of data set [5] is CC(C)[C@H](NCC1(O)OC[C@@H](O)[C@@H](O)[C@@H]1O)C(=O)N[C@@H](Cc1c[nH]cn1)C(=O)O. The experiment in a line: Oxidase activity kinetics (4AA/TODB/POD), PnFPOX N56A mutant. Type of data set: biochemical, Phaeosphaeria nodorum. Particulars: other: purified enzyme, 25° C., pH 7.0.
Excerpt: as §5, §3, §6, §7

In data set [6] the test system is CC(C)[C@H](NCC1(O)OC[C@@H](O)[C@@H](O)[C@@H]1O)C(=O)O. The data set is described as above. Type of data set: biochemical, Phaeosphaeria nodorum. Particulars: other: purified enzyme, 25° C., pH 7.0.
Excerpt: as §5, §3, §6, §7

In data set [7] the test system is CC(C)[C@H](NCC1(O)OC[C@@H](O)[C@@H](O)[C@@H]1O)C(=O)N[C@@H](Cc1c[nH]cn1)C(=O)O. The experiment in a line: Oxidase activity kinetics (4AA/TODB/POD), PnFPOX wild type. It is filed as biochemical, Phaeosphaeria nodorum. Particulars: other: 4AA/TODB/POD, 25° C., pH 7.0.
Excerpt: as §5, §3, §6
(§8) The oxidase and dehydrogenase activities of the N56A mutant FAOD were measured. […]

Data set [8] relates to CC(C)[C@H](NCC1(O)OC[C@@H](O)[C@@H](O)[C@@H]1O)C(=O)O. The data set is described as above. It is filed as biochemical, Phaeosphaeria nodorum. Particulars: other: 4AA/TODB/POD, 25° C., pH 7.0.
Excerpt: as §5, §3, §6, §8

Data set [9] shares this test system. The experiment in a line: Dehydrogenase activity kinetics (mPMS/DCIP), PnFPOX wild type. Type of data set: biochemical, Phaeosphaeria nodorum. Particulars: other: mPMS/DCIP, 25° C., pH 7.0.
Excerpt: As used herein, “dehydrogenase activity” is an enzymatic activity (Vmax) of the fructosyl amino acid oxidase to catalyze oxidation of fructosyl amino acid to generate 2-keto-D-glucose and the corresponding amino acid while utilizing an electron mediator other than oxygen as an electron acceptor. […]
as §2
Escherichia coli BL21 (DE3) cells harboring expression vectors of N1-1 FAOD (SEQ ID NO: 2) mutants were grown in 150 ml of LB medium containing 50 μg/ml kanamycin at 37° C. […] The formation of quinoneimine dye was measured spectrophotometrically at 546 nm. […]
Mutations were introduced using site-directed mutagenesis as in Example 1, and BL21 (DE3) cells were transformed with an expression vector containing wild-type or mutant PnFPOX (SEQ ID NO: 1). […] The oxidase and dehydrogenase activities were measured as in Example 1.
as §8

Substrate in data set [10]: CC(C)[C@H](NCC1(O)OC[C@@H](O)[C@@H](O)[C@@H]1O)C(=O)O
The experiment in a line: Dehydrogenase activity kinetics (mPMS/DCIP), N1-1 FAOD wild type. Type of data set: biochemical, Pichia sp. N1-1. Particulars: 25° C., pH 7.0.
Excerpt: as §1, §2, §3
(§9) The recombinant FAOD was purified as follows. First, a water-soluble fraction containing the enzyme was prepared from recombinant Escherichia coli. E. coli containing the expression vector was cultured in 7 L LB medium (37° C., in 10 L fermenter, 50 μg/ml ampicillin), then the expression was induced with IPTG (final concentration: 0.3 mM) at about OD660=0.7 and culture temperature was lowered to 30° C. The cells were suspended in 100 mM PPb (pH 7.0) and disrupted four times using a French press. […]

Substrate in data set [11]: CC(C)[C@H](NCC1(O)OC[C@@H](O)[C@@H](O)[C@@H]1O)C(=O)O
The data set can be described thus: Oxidase activity kinetics (4AA/TODB/POD), N1-1 FAOD wild type. Particulars: 25° C., pH 7.0. It is filed as biochemical, Pichia sp. N1-1.
Excerpt: as §5, §3, §9

Substrate in data set [12]: CC(C)[C@H](NCC1(O)OC[C@@H](O)[C@@H](O)[C@@H]1O)C(=O)O
The experiment in a line: Oxidase activity kinetics (4AA/TODB/POD), N1-1 FAOD N47A mutant. Type of data set: biochemical, Pichia sp. N1-1. Particulars: 25° C., pH 7.0.
Excerpt: as §5, §3, §9

Substrate in data set [13]: CC(C)[C@H](NCC1(O)OC[C@@H](O)[C@@H](O)[C@@H]1O)C(=O)O
The data set can be described thus: Dehydrogenase activity kinetics (mPMS/DCIP), N1-1 FAOD N47A mutant. Particulars: 25° C., pH 7.0. Type of data set: biochemical, Pichia sp. N1-1.
Excerpt: as §1, §2, §3, §9

T1 sequence (Q0UIL6 whole entry N56A): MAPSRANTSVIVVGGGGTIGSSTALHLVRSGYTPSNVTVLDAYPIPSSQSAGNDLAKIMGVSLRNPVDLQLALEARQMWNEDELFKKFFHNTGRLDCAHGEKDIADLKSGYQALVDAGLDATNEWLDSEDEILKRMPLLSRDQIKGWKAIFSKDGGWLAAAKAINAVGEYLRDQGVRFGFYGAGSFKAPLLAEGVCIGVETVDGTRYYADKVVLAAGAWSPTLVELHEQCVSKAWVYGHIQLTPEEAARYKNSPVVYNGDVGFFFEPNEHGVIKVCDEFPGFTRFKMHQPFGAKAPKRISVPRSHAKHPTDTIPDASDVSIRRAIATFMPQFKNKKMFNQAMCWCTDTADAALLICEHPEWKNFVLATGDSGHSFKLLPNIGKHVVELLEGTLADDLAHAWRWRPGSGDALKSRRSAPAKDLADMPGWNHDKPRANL

As to `CC(C)[C@H](NCC1(O)OC[C@@H](O)[C@@H](O)[C@@H]1O)C(=O)N[C@@H](Cc1cnc[nH]1)C(=O)O` (stereo partly shown) [f-αValHis, fructosyl valyl histidine], the Vmax was 3.40 U/mg in data set [1] and 1.90 U/mg in [2].
As a reminder, the Km is the concentration of substrate that gives half-maximal velocity. Consider “fructosyl amino acid oxidase from Phaeosphaeria nodorum (PnFPOX, SEQ ID NO: 1) variant N56A (Parastagonospora nodorum SN15; N56A)”, for which the Km in data set [3] came to 74 µM; in data set [4], 1600 µM; in data set [5], 92 µM; in data set [6], 86 µM.
As to “fructosyl amino acid oxidase from Phaeosphaeria nodorum (PnFPOX), wild type, SEQ ID NO: 1 (Parastagonospora nodorum SN15)”, the Km was determined as 200 µM in data set [7], 640 µM in [8] and 1100 µM in [9]. Also, the Vmax in data set [7] is 2.97 U/mg; in [8] it was 27.6 U/mg; in data set [9], 28.0 U/mg.

B1: fructosyl amino acid oxidase from Pichia sp. N1-1 (N1-1 FAOD), wild type, SEQ ID NO: 2 (Pichia sp. N1-1) (protein)
chain: MESIIIVGAGTFGLSTALQLARDGYKNIKCFDKFPVPSEIAAGNDSNKIFHYDYVAPLAKPNSKERLSLEALHLWKTDPVYKPYYHPVGFILAASSDAPLLHDKEYYEELQKNGLRNYRYISTPEEFREYLPILKGPLPNWRGYVLDGDNGWLHARDSLKSAYEECKRLGVEFVFGDDGEIVELLNENGKLTGIRARSGAIFSAQKYVLSSGANAVTLLNFQRQLEGKCFTLAHFKVTDEEAKAFKSLPVLFNAEKGFFFEADENNEIKICNEYPGFTHTNESGESIPLYRMEIPLESALEIRQYLKETMPQFADRPFTKTRICWCTDSPDMQLILCTHPEYTNLIVASGDSGNSFKIMPIIGKYVSKVVTKGDKGLDPEDKECWKWRPETWDKRGQVRWGGRYRVADLNEIEEWVSVENPTPHKLE
notes: 427 aa
B1: the Km came to 3220 µM in data set [10] (other: crude preparation), 4600 µM in data set [10] (other: purified enzyme), 2640 µM in data set [11] (other: crude preparation) and 4800 µM in data set [11] (other: purified enzyme). The Vmax in data set [10] (other: crude preparation) is listed as 0.60 U/mg; in [10] (other: purified enzyme), 9.8 U/mg; in [11] (other: crude preparation) it was 0.71 U/mg; in data set [11] (other: purified enzyme), 9.3 U/mg.

B2: fructosyl amino acid oxidase from Pichia sp. N1-1 (N1-1 FAOD, SEQ ID NO: 2) variant N47A (Pichia sp. N1-1; N47A) (protein)
chain: B1 chain with N47A
notes: crude and purified
On to B2, for which the Km in data set [12] (other: crude preparation) was 1420 µM; in data set [12] (other: purified enzyme), 2200 µM; in data set [13] (other: crude preparation), 9130 µM; in data set [13] (other: purified enzyme) it was 6200 µM. Moreover, the Vmax in data set [12] (other: crude preparation) was 0.11 U/mg; in [12] (other: purified enzyme), 1.4 U/mg; in data set [13] (other: crude preparation), 0.82 U/mg; in data set [13] (other: purified enzyme), 6.0 U/mg.
